The text below walks through data of IntAct's records for PubMed 16858409.

B1: Mitochondrial antiviral-signaling protein (Mus musculus), Q8VCF0 (parent)
chain: MTFAEDKTYKYIRDNHSKFCCVDVLEILPYLSCLTASDQDRLRASYRQIGNRDTLWGLFNNLQRRPGWVEVFIRALQICELPGLADQVTRVYQSYLPPGTSLRSLEPLQLPDFPAAVSGPSAFAPGHNIPDHGLRETPSCPKPVQDTQPPESPVENSEQLLQTNSGAVARMSGGSLIPSPNQQALSPQPSREHQEQEPELGGAHAANVASVPIATYGPVSPTVSFQPLPRTALRTNLLSGVTVSALSADTSLSSSSTGSAFAKGAGDQAKAATCFSTTLTNSVTTSSVPSPRLVPVKTMSSKLPLSSKSTAAMTSTVLTNTAPSKLPSNSVYAGTVPSRVPASVAKAPANTIPPERNSKQAKETPEGPATKVTTGGNQTGPNSSIRSLHSGPEMSKPGVLVSQLDEPFSACSVDLAISPSSSLVSEPNHGPEENEYSSFRIQVDESPSADLLGSPEPLATQQPQEEEEHCASSMPWAKWLGATSALLAVFLAVMLYRSRRLAQ
partner: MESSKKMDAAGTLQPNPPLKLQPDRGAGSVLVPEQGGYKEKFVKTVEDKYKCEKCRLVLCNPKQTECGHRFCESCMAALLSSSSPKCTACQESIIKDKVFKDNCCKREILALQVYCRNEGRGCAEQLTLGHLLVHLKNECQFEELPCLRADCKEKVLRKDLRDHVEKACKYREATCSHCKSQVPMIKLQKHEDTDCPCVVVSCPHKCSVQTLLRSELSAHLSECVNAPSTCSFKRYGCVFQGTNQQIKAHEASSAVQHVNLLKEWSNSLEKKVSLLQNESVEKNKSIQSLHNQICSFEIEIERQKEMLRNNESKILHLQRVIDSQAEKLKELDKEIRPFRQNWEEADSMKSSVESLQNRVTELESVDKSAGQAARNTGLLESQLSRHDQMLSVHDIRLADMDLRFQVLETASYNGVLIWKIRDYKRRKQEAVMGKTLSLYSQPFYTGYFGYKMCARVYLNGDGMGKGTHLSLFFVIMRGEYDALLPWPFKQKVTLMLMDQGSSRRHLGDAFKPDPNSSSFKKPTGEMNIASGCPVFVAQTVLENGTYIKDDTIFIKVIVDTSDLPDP
B2: TNF receptor-associated factor 3 (Mus musculus), Q60803 (parent)
chain: B1 partner
partner: B1 chain

One experiment covers variants of B1. The conditions noted are these: with traf3_mouse Traf3, Q60803.
As for MTFAEDKTYKYIRDNHSKFCCVDVLEILPYLSCLTASDQDRLRASYRQIGNRDTLWGLFNNLQRRPGWVEVFIRALQICELPGLADQVTRVYQSYLPPGTSLRSLEPLQLPDFPAAVSGPSAFAPGHNIPDHGLRETPSCPKPVQDIQPPESPVENSEQLLQTNSGAVARMSGGSLIPSPNQQALSPQPSREHQEQEPELGGAHAANVASVPIATYGPVSPTVSFQPLPRTALRTNLLSGVTVSALSADTSLSSSSTGSAFAKGAGDQAKAATCFSTTLTNSVTTSSVPSPRLVPVKTMSSKLPLSSKSTAAMTSTVLTNTAPSKLPSNSVYAGTVPSRVPASVAKAPANTIPPERNSKQAKETPEGPATKVTTGGNQTGPNSSIRSLHSGPEMSKPGVLVSQLDEPFSACSVDLAISPSSSLVSEPNHGPEENEYSSFRIQVDESPSADLLGSPEPLATQQPQEEEEHCASSMPWAKWLGATSALLAVFLAVMLYRSRRLAQ [T147I], the “effect of a mutation on the interaction” value is given as “disrupting interaction”.

Another experiment covers variants of B2. To be noted: with mavs_mouse Mavs.
Turning to MESSKKMDAAGTLQPNPPLKLQPDRGAGSVLVPEQGGYKEKFVKTVEDKYKCEKCRLVLCNPKQTECGHRFCESCMAALLSSSSPKCTACQESIIKDKVFKDNCCKREILALQVYCRNEGRGCAEQLTLGHLLVHLKNECQFEELPCLRADCKEKVLRKDLRDHVEKACKYREATCSHCKSQVPMIKLQKHEDTDCPCVVVSCPHKCSVQTLLRSELSAHLSECVNAPSTCSFKRYGCVFQGTNQQIKAHEASSAVQHVNLLKEWSNSLEKKVSLLQNESVEKNKSIQSLHNQICSFEIEIERQKEMLRNNESKILHLQRVIDSQAEKLKELDKEIRPFRQNWEEADSMKSSVESLQNRVTELESVDKSAGQAARNTGLLESQLSRHDQMLSVHDIRLADMDLRFQVLETASYNGVLIWKIRDYKRRKQEAVMGKTLSLYSAPFYTGYFGYKMCARVYLNGDGMGKGTHLSLFFVIMRGEYDALLPWPFKQKVTLMLMDQGSSRRHLGDAFKPDPNSSSFKKPTGEMNIASGCPVFVAQTVLENGTYIKDDTIFIKVIVDTSDLPDP [Q442A], the “effect of a mutation on the interaction” value is listed as “disrupting interaction”.

For the variant MESSKKMDAAGTLQPNPPLKLQPDRGAGSVLVPEQGGYKEKFVKTVEDKYKCEKCRLVLCNPKQTECGHRFCESCMAALLSSSSPKCTACQESIIKDKVFKDNCCKREILALQVYCRNEGRGCAEQLTLGHLLVHLKNECQFEELPCLRADCKEKVLRKDLRDHVEKACKYREATCSHCKSQVPMIKLQKHEDTDCPCVVVSCPHKCSVQTLLRSELSAHLSECVNAPSTCSFKRYGCVFQGTNQQIKAHEASSAVQHVNLLKEWSNSLEKKVSLLQNESVEKNKSIQSLHNQICSFEIEIERQKEMLRNNESKILHLQRVIDSQAEKLKELDKEIRPFRQNWEEADSMKSSVESLQNRVTELESVDKSAGQAARNTGLLESQLSRHDQMLSVHDIRLADMDLRFQVLETASYNGVLIWKIRDYKRRKQEAVMGKTLSLASQPFYTGYFGYKMCARVYLNGDGMGKGTHLSLFFVIMRGEYDALLPWPFKQKVTLMLMDQGSSRRHLGDAFKPDPNSSSFKKPTGEMNIASGCPVFVAQTVLENGTYIKDDTIFIKVIVDTSDLPDP [Y440A], the “effect of a mutation on the interaction” value is reported as “disrupting interaction”.
